Assay results reported in the supplement of paper PMC9170038.

Tested on: MS2 coat protein
Assay: apparent KD of MS2 coat protein; designed switch direction (-1 OFF switch, 1 ON switch): 1; higher = weaker reporter binding
Outline: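 On Illumina chips, designed RNA switches with common flanks were made by stalled E. coli RNA polymerase. Titrations with SNAP-549-labelled MS2 coat protein, doubling from 0.7 or 1.5 nM to 3 µM, were done with no input, with 200 uM small-molecule ligand, or with an oligonucleotide input. Apparent KD is the median per design over clusters, from curve fits of normalised cluster fluorescence.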

[1] = input ligand: microRNA oligo, concentration not stated
[2] = Eterna round: R95, input ligand: FMN 200 uM
[3] = Eterna round: R95, input ligand: microRNA oligo, concentration not stated
[4] = Eterna round: R95, input ligand: none

Sequence | apparent KD of MS2 coat protein (input ligand: FMN 200 uM) | apparent KD of MS2 coat protein [1] | apparent KD of MS2 coat protein (input ligand: none) | apparent KD of MS2 coat protein [2] | apparent KD of MS2 coat protein [3] | apparent KD of MS2 coat protein [4]
CCCUCACAUGAGGAUCACCCAUGUCCUAGCCCGUCAGGAUAUAGCCCGCAUCCGCUGCGGCUAGAAGGGACAGCUG [JR_SS001_Sub611] (Eterna round: R96, puzzle: Same State 1) | 0.177 µM | 0.152 µM | 0.232 µM | – | – | –
CCCUUCGGCACAUGAGGAUCACCCAUGUUUUAGUGGAAGAGGUAGGAUAUGGCUGGGAGCAGAAGCCAGAAGGACCAAAUAAAU [Attiatan] (Eterna round: R96, puzzle: Same State NG 3) | 0.0221 µM | 0.019 µM | 0.0098 µM | – | – | –
CCGAUUGAUGGAGGAUAUGGAGCCUUAUUGGCUCCAGAAGGCUAAUAACAUGAGGAUCACCCAUGUCGGCGGUCUAAUGACCGA [Eli NG1ss - 54] (Eterna round: R96, puzzle: Same State NG 1) | 0.0361 µM | 0.0575 µM | 0.0691 µM | – | – | –
CCGCAUUCAGCAGGAUAUCUCAACCGGAAGAUGAGAGAAGGGUUGAUUACAUGAGGAUCACCCAUGUCCAAGCAUGCGAGAGCC [Eternabot solution 23] (Eterna round: R96, puzzle: Same State NG 1) | 0.5 µM | 0.754 µM | 0.188 µM | – | – | –
CCGGCCACACAACAAGGCCAACAUGAGGAUCACCCAUGUACACAGGAUAUCGGCAGCCAAGGCUCCGAGAAGGGUGGUUCAAUU [Beage] (Eterna round: R96, puzzle: Same State NG 3) | 0.438 µM | 0.145 µM | 0.234 µM | – | – | –
CCGGUACAUGAGGAUCACCCAUGUUGCGGCAGGACAGGAUAUGGGCGAGAAUAUGUAGGCCCAGAAGGGUCAUCAC [Qure] (puzzle: Same State 1) | – | – | – | 0.0241 µM | 0.0421 µM | 0.0389 µM
CCGUAGAUGGAAGGAUAUGGAGCCUUAUUGGCUCCAGAAGGUUCAAAACAUGAGGAUCACCCAUGUACGGCGGUCAAUAGACCG [Eli NG1ss - 82] (Eterna round: R96, puzzle: Same State NG 1) | 0.111 µM | 0.226 µM | 0.245 µM | – | – | –
CCGUAGAUGGAAGGAUAUGGAGCCUUAUUGGCUCCAGAAGGUUCAAUACAUGAGGAUCACCCAUGUUCGGCGGUCAAUAGACCG [Eli NG1ss - 81] (Eterna round: R96, puzzle: Same State NG 1) | 0.0269 µM | 0.032 µM | 0.0666 µM | – | – | –
CCUGCAAUUAACGCCUACAUGAGGAUCACCCAUGUAUGUAGGCAGGAUAUCGUUUGCUUUGCAAACGAGAAGGGCUGUAGUAGC [salish99_SSNG3_R04_002] (Eterna round: R96, puzzle: Same State NG 3) | 0.0187 µM | 0.0154 µM | 0.0189 µM | – | – | –
CGAUGAAACAAAGGAAGAAGAGUUGAAGUACAUGAGGAUCACCCAUGUCAGAGCUUUUUGCUCGUCAUGAACAGGAA [JR_SHM208a_Sub004] (puzzle: Sensor for hsa-mir-208a) | – | – | – | 0.0359 µM | 0.0244 µM | 0.0549 µM
CGGCGCUGUUGAGAGGAUAUGCGGUGAUGGACAUGAGGAUCACCCAUGUUAGCGAUAGCAUUACGGUAGAAGGCUCUACAGCUGU [Soteed Omei mod 11] (puzzle: Same State 2) | – | – | – | – | 0.0217 µM | –
CGUCCGGCCUGUGCUGGCCGGUUGCUUGUACAUGAGGAUCACCCAUGUUCUUGUGCAGGCUUUUUGCUCGUCUUGUG [salish99_mir208a_018] (puzzle: Sensor for hsa-mir-208a) | – | – | – | 0.212 µM | 0.025 µM | 0.265 µM
CGUCGUUUGAUAGGAUAUCGCUUUACAUGAGGAUCGCCCAUGUUUACCACGCUGGUUUUUCUUUCCGAGAAGGAUUCUGAUGUU [salish99_SSNG02_r04_027] (Eterna round: R96, puzzle: Same State NG 2) | 0.0284 µM | 0.0105 µM | 0.00485 µM | – | – | –
CGUCGUUUGUUAGGAUAUCGCUAUACAUGAGGAUCACCCAUGUUUACCACGCUGGUUUUUCAUACCGAGAAGGAUUCUGAUGUU [salish99_SSNG02_r04_019] (Eterna round: R96, puzzle: Same State NG 2) | 0.0425 µM | 0.0316 µM | 0.0378 µM | – | – | –
CUAAAAGGAUGAGGAUAUGCAGAGGAUCACCCUGUAGAAGGCAACAGAUGAGGAUAUGCAGAGGAUCACCCUGUAGAAGGCAAC [pwkr ssNG DX.2] (Eterna round: R96, puzzle: Same State NG 1) | 0.233 µM | 0.0568 µM | 0.0941 µM | – | – | –
CUAACAACAGGUUGCAGUGCUCGUCUCUAACAUGAGGAUCACCCAUGUAAUAGCCCGGUGGAAGCGCUCGGGUCACC [Tearor] (puzzle: Sensor for hsa-mir-208a) | – | – | – | 0.0283 µM | 0.0345 µM | 0.0309 µM
CUAUUAGGAUGAGGAUAUGCAGAGGAUCACCCUGUAGAAGGCAAUAGAUGAGGAUAUGCAGAGGAUCACCCUGUAGAAGGCAAC [pwkr ssNG DX.3] (Eterna round: R96, puzzle: Same State NG 1) | 0.423 µM | 0.0989 µM | 0.177 µM | – | – | –
CUCCAUUGGGUAGGAUAUCUAGGAUAUGGGAAAGACUAAGUCUGUAGGUCACCUAACCCAGAUGGAGAGAAGGACCCAACUCUC [pwkr ssNG2 2FMN + F9.41] (Eterna round: R96, puzzle: Same State NG 2) | 0.00817 µM | 0.00207 µM | 0.0123 µM | – | – | –
CUCCGGAAGCGAGGAUAUGCAGAGGAUCACCCUGCAGAAGGCGCCCUUGCGAGGAUAUGCAGAGGAUCACCCUGCAGAAGGCGC [pwkr ssNG DX.30] (Eterna round: R96, puzzle: Same State NG 1) | 0.0162 µM | 0.0154 µM | 0.028 µM | – | – | –
CUGAGCAAGCAAGGAUAUCACGUCGUUUAGACGUGAGAAGGUGCUCCUUACAUGAGGAUCACCCAUGUAUAACAUGAAGCUCAG [SSNG1/10-A3] (Eterna round: R96, puzzle: Same State NG 1) | 0.15 µM | 0.273 µM | 0.87 µM | – | – | –
CUGAGCAAUCAAGGAUAUCACGUCGAUUAGACGUGAGAAGGUGAUCAUUACAUGAGGAUCACCCAUGUAUUACAUGGAGCUCAG [Brourd's SSNG1/1-A2 mod 2] (Eterna round: R96, puzzle: Same State NG 1) | – | 0.833 µM | – | – | – | –
CUGAGCAAUCUAGGAUAUCACGUCGAAUAGACGUGAGAAGGAGAUCAUAACAUGAGGAUCACCCAUGUAUUACAUGAAGCUCAG [SSNG1/7-A1] (Eterna round: R96, puzzle: Same State NG 1) | 0.0134 µM | 0.0116 µM | 0.0179 µM | – | – | –
GAAAAGGCAACGCAGGAUAUGAAAGGUGAAACAUGAGGAUCACCCAUGUGCUACCUUCCGAUAAAUCAGAAGGGCGACGCCUAAA [Usbemaus] (puzzle: Same State 2) | – | – | – | 0.00933 µM | 0.00896 µM | 0.0111 µM
GACAAUCUAUCUGAGGAUAUCAUGAAUAAAACAUGAGGAUCACCCAUGUGCAGGAGAACUGCAAAUGAGAAGGCAGAUAGAUUGG [Mat - Same State 2 - Mod - D10] (puzzle: Same State 2) | – | – | – | 0.01 µM | 0.0372 µM | 0.0269 µM
GACAAUCUAUCUGAGGAUAUCAUGAAUAAAACAUGAGGAUCACCCAUGUGCAGGAUAACUGCAAAUGAGAAGGCAGAUAGAUUGU [Mat - Same State 2 - Mod - D7] (puzzle: Same State 2) | – | – | – | 0.0123 µM | 0.024 µM | 0.0277 µM
GACAGGCAGGCUUUUUCCUCGUAGUGUAAACAUGAGGAUCACCCAUGUGCUCGCCCUGGAUCUUUGGAUCGCAGGAA [Tibeon] (puzzle: Sensor for hsa-mir-208a) | – | – | – | 0.353 µM | 0.124 µM | 0.407 µM
GACCGCGAGGAAGGAUAUGGAGCCUUAUUGGCUCCAGAAGGUCCAUAAAGGACAUGAGGAUCACCCAUGUGGUGAGAAGCGGUC [Fiskers NG1ss - 27] (Eterna round: R96, puzzle: Same State NG 1) | – | 0.788 µM | – | – | – | –
GACCGCGAGGAAGGAUAUGGAGCCUUAUUGGCUCCAGAAGGUCCAUAAAGGACAUGAGGAUCACCCAUGUGGUGUGAAGCGGUC [Fiskers NG1ss - 18] (Eterna round: R96, puzzle: Same State NG 1) | 0.0655 µM | 0.407 µM | 0.627 µM | – | – | –
